Laboratory results published in patent US20180318438A1, “ANTIBODY DRUG CONJUGATES OF KINESIN SPINDEL PROTEIN (KSP) INHIBITORS WITH ANTI-TWEAKR-ANTIBODIES” (Bayer Pharma Aktiengesellschaft, priority 2015, published 2018).
Substitutions are numbered along the chain they refer to.

T1: TPP-2305, hTNFRSF12 amino acids 28-80 (extracellular domain of TWEAKR) (human, UniProt Q9NP84 28-80)
T1 construct: Bought recombinant antigen (Fitzgerald 30R-AT080); also called TWEAKR extracellular domain; 30R-AT080 (Fitzgerald)
T1 sequence: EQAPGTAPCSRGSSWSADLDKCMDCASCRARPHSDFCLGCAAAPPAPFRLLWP

T2: TWEAKR on human cells (NCI-H292, 786-O, A498, SK-HEP-1, HEK293) (human, UniProt Q9NP84 28-129)
T2 sequence: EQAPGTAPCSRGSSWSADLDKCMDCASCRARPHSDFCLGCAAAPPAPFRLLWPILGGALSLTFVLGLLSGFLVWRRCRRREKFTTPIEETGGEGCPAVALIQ

B1: ITEM-4 (antibody, V domains shown)
VH: QVQLQQSGPELVKPGASVKMSCKASGYTFTDFIIAWVKQRTGQGLEWIGEIYPGTGRTYYSEKFRGKATLTADKSSNTAYMQLSSLTSVDSAVYFCARRTIYYDYDGDYWGQGTTLTVSS
VL: DIVMTQAAFSNPVTLGTSASISCRSSKSLLHSNGITYLYWYLQKPGQSPQLLIYQMSNLASGVPDRFSSSGSGTDFTLRISRVEAEDVGVYYCAHNLELPWTFGGGTKLELK
notes: Murine IgG2b, bought (eBioscience 13-9018); also called anti-TWEAKR AK1A; AK1A
B2: TPP-7006 (antibody, human IgG1, kappa, V domains shown)
VH: B1 VH
VL: DIVMTQAAFSNPVTLGTSASISCRSSKSLLHSNGITYLYWYLQKPGQSPQLLIYQMSNLASGVPDRFSSSGSGTDFTLRISRVEAEDVGVYYCAHNLELPWTFGGGTKLELKR
notes: also called anti-TWEAKR AK1C; AK1C
B3: TPP-7007 (antibody, human IgG1, kappa, V domains shown)
VH: QVQLVQSGAEVKKPGASVKVSCKASGYTFTDFIIAWVKQAPGQGLEWIGEIYPGTGRTYYSEKFRGKATLTADTSTSTAYMELSSLRSEDTAVYFCARRTIYYDYDGDYWGQGTLVTVSS
VL: DIVMTQSPLSLPVTPGEPASISCRSSKSLLHSNGITYLYWYLQKPGQSPQLLIYQMSNLASGVPDRFSGSGSGTDFTLKISRVEAEDVGVYYCAHNLELPWTFGQGTKVEIKR
notes: also called anti-TWEAKR AK1D; AK1D
B4: TPP-7075 (antibody, human IgG1, kappa, V domains shown)
VH: B3 VH
VL: B3 VL with N33S
B5: TPP-7005 (antibody, human IgG1, kappa, V domains shown)
VH: B3 VH with V20I, A24V, Q43K, T74K, F95Y, L115T
VL: B3 VL with G69S, Q105G
notes: also called anti-TWEAKR AK1B; AK1B

Assays:
[1] = system: KPL4: human breast cancer cell line; assay: Cytotoxicity, MTT assay; assay type: cell-based; settings: KPL4, 96 h, metabolites, KPL4 cells
Protocol: The cells were cultivated according to the standard method using the growth media listed under C-1. The test is carried out by detaching the cells with a solution of Accutase in PBS (Biochrom AG #L2143), pelleting, resuspending in culture medium, counting and sowing into a 96-well culture plate with white bottom (Costar #3610) (NCI H292: 2500 cells/well, KPL-4: 1200 cells/well, SK-HEP-1: 1500 cells/well in a total volume of 100 μl). The cells were then incubated in an incubator at 37° C. and 5% carbon dioxide. After 48 h, the medium was replaced. The metabolites in 10 μl of culture medium in concentrations from 10^−5M to 10^−13M were then pipetted to the cells (in triplicate), and the assay was then incubated in an incubator at 37° C. and 5% carbon dioxide. […] To this end, the MTT reagent was incubated with the cells for 4 h, followed by lysis of the cells overnight by addition of the detergent. The dye formed was detected at 570 nm (Infinite M1000 pro, Tec an). The measured data were used to calculate the IC50 of the growth inhibition using the DRC (dose response curve). The proliferation of cells which were not treated with test substance but were otherwise identically treated was defined as the 100% figure.

[2] = system: NCI-H292: human mucoepidermoid lung carcinoma cells; assay: Cytotoxicity, MTT assay; assay type: cell-based; settings: NCI-H292, 96 h, metabolites
Protocol: The cells were cultivated according to the standard method using the growth media listed under C-1. […] The cells were then incubated in an incubator at 37° C. and 5% carbon dioxide. […] To this end, the MTT reagent was incubated with the cells for 4 h, followed by lysis of the cells overnight by addition of the detergent. […] The measured data were used to calculate the IC50 of the growth inhibition using the DRC (dose response curve). The proliferation of cells which were not treated with test substance but were otherwise identically treated was defined as the 100% figure.

Caco-2 cells = assay: Cell permeability, flux assay using Caco-2 cells; settings: basal to apical, 2 h
[3] = target: T1, TPP-2305, hTNFRSF12 amino acids 28-80 …; assay: SPR (Biacore T200), antibody captured by anti-human Fc on CM5, TWEAKR extracellular domain 3.9-500 nM as analyte, 25 C; monovalent KD
[4] = target: T2, TWEAKR on human cells (NCI-H292, 786-O, …); assay: cell-based or functional assay
[5] = target: T2, TWEAKR on human cells (NCI-H292, 786-O, …); assay: flow cytometry on NCI-H292 cells, dose curve from 10 ug/ml in 1:5 steps, anti-kappa-FITC secondary
[6] = target: T2, TWEAKR on human cells (NCI-H292, 786-O, …); assay: flow cytometry on SK-HEP-1 cells, dose curve from 10 ug/ml in 1:5 steps, anti-kappa-FITC secondary
[7] = target: T1, TPP-2305, hTNFRSF12 amino acids 28-80 …; assay: SPR (Biacore T200), antibody captured by anti-human Fc on CM5, TWEAKR extracellular domain 3.9-500 nM as analyte, 25 C

Row | Molecule | Kd [3] | Agonistic activity [%] of the TWEAK-ind. agonism (NF-kappaB reporter gene assay, HEK293) [4] | EC50 [5] | EC50 [6] | further results
1 | CC(C)(C)[C@H](c1cc(-c2cc(F)ccc2F)cn1Cc1ccccc1)N(CC[C@H](N)C(=O)NCCNC(=O)CNC(=O)CC(SC[C@H](N)C(=O)O)C(=O)O)C(=O)CO (stereo partly drawn) [Example M13, 4-[(2-{[2-({(2S)-2-Amino-4-[{(1R)-1-[1-benzyl-4-(2,5-difluorophenyl)-1H-pyrrol-2-yl]-2,2-dimethylpropyl}(glycoloyl)amino]butanoyl}amino)ethyl]amino}-2-oxoethyl)amino]-2-{[(2R)-2-amino-2-carboxyethyl]sulphanyl}-4-oxobutanoic acid/trifluoroacetic acid (1:1)] |  |  |  |  | IC50 [1]: 169 nM; IC50 [2]: 152 nM
2 | CC(C)(C)[C@H](c1cc(-c2cc(F)ccc2F)cn1Cc1ccccc1)N(CC[C@H](N)C(=O)N[C@H](CCC(=O)O)C(=O)O)C(=O)CO.O=C(O)C(F)(F)F [Example M25, N-{(2S)-2-Amino-4-[{(1R)-1-[1-benzyl-4-(2,5-difluorophenyl)-1H-pyrrol-2-yl]-2,2-dimethylpropyl}(glycoloyl)amino]butanoyl}-L-glutamic acid/trifluoroacetic acid (1:1)] |  |  |  |  | Papp (B-A) (Caco-2 cells): 0.81 ×10⁻⁶ cm/s
3 | CC(C)(C)[C@H](c1cc(-c2cc(F)ccc2F)cn1Cc1ccccc1)N(CC[C@H](N)C(=O)NCCNC(=O)CNC(=O)CC(SC[C@H](N)C(=O)O)C(=O)O)C(=O)CO.O=C(O)C(F)(F)F (stereo partly drawn) [Example M26, 4-[(2-{[2-({(2S)-2-Amino-4-[{(1R)-1-[1-benzyl-4-(2,5-difluorophenyl)-1H-pyrrol-2-yl]-2,2-dimethylpropyl}(glycoloyl)amino]butanoyl}amino)ethyl]amino}-2-oxoethyl)amino]-2-{[(2R)-2-amino-2-carboxyethyl]sulphanyl}-4-oxobutanoic acid/trifluoro acetic acid (1:1)] |  |  |  |  | Papp (B-A) (Caco-2 cells): 1.3 ×10⁻⁶ cm/s
4 | B1 | 0.7 nM | 14% |  |  | 
5 | B2 | 0.33 nM | 3% | 0.54 nM | 0.83 nM | 
6 | B3 | 1.4 nM | 4% | 0.8 nM | 0.9 nM | 
7 | B4 | 6 nM | 15% | 8.9 nM |  | Antagonistic activity IC50 [M] (NF-kappaB reporter gene assay in the presence of Tweak 200 ng/ml) [4]: 2.4e-08 M
8 | B5 | 0.26 nM | 0.1% | 0.5 nM | 0.54 nM | koff [7]: 0.0018 s⁻¹; kon [7]: 6.8e+06 M⁻¹ s⁻¹; Antagonistic activity IC50 [M] (NF-kappaB reporter gene assay in the presence of Tweak 200 ng/ml) [4]: 2e-11 M
